In patent US20240254222A1 (Bayer, published 2024):

T1: human wild-type Sema3A of SEQ ID NO: 600, expressed by HEK293 cells (human, UniProt Q14563 22-771, limits assumed)
T1 sequence: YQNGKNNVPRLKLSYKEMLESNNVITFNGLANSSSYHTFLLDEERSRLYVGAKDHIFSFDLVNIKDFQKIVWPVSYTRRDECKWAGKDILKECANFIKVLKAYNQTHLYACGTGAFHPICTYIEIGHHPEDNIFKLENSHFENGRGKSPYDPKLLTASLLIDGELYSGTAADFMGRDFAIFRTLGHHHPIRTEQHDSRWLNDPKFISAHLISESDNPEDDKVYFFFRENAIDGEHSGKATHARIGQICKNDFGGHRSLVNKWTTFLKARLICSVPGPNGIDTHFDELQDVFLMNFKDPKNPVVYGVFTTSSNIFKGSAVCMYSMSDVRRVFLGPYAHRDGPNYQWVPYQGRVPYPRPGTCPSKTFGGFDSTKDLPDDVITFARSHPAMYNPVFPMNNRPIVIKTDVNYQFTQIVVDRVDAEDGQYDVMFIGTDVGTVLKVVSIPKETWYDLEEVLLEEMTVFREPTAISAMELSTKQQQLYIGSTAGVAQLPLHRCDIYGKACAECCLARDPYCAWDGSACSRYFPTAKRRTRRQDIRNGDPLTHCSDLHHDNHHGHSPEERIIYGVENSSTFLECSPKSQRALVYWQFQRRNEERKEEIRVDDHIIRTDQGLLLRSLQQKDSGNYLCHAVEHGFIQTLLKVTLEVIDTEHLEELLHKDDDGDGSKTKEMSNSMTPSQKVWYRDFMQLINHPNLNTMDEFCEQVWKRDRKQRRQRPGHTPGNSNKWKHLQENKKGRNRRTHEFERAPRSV

T2: Pig Semaphorin3A-Sema Domain, TPP-20176 (pig, UniProt Q63548 21-569 (rat entry))
T2 construct: produced inhouse
T2 chain: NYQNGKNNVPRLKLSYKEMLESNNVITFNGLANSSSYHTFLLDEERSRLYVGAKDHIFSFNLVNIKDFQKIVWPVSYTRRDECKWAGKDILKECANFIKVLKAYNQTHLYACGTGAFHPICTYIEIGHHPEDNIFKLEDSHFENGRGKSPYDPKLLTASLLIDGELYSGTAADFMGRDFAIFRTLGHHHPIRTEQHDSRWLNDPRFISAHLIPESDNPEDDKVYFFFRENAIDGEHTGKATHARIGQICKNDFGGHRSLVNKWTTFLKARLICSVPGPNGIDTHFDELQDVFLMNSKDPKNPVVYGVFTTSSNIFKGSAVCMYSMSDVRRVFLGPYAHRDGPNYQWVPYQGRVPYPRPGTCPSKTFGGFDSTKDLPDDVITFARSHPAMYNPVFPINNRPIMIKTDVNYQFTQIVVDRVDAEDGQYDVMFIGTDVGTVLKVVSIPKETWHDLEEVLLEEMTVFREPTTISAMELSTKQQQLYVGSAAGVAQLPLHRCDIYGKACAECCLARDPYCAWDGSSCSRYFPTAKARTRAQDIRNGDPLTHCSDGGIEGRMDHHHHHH


Experiments:
[1] = biological target: Human Semaphorin3A-Fc (R&D Systems), TPP-13211 (human); test: cell-based or functional assay
[2] = biological target: T1, human wild-type Sema3A of SEQ ID NO: …; test: cell-based or functional assay
[3] = biological target: T1, human wild-type Sema3A of SEQ ID NO: …; test: cell-based or functional assay; remark: listed apart in the source
[4] = biological target: T2, Pig Semaphorin3A-Sema Domain, TPP-20176; test: SPR, captured antibody, Sema3A domain analyte
Experimental: To assess the binding activity of anti-Sema3A antibodies binding assays were conducted using surface plasmon resonance (SPR). Binding assays were performed on a Biacore T200 instrument (Cytiva) at 25° C. using assay buffer HBS P+, 300 mM NaCl, 0.75 mM CaCl₂, 2.5 mM MgCl₂, 1 mg/ml BSA, 0.05% NaN₃. Antibodies were captured via anti-human Fc IgGs (“Human antibody capture kit”, Order No. BR100839, Cytiva) covalently amine coupled to a Series S CM5 sensor chip (Cytiva). The amine coupling was carried out according to the manufacturer's instructions using 1-ethyl-3-(3-dimethylaminopropyl) carbodiimide hydrochloride (EDC), N-hydroxysuccinimide (NHS) and ethanolamine HCl, pH 8.5 (“Amine Coupling Kit” BR-1000-50, Cytiva.). Human, mouse, cynomolgus, rat, dog and pig monovalent Sema3A domain were used as analytes in a concentration series from 0.024-3.125 nM in multi cycle kinetics mode. The sensor surface was regenerated with glycine pH 2.0 after each antigen injection. Obtained sensorgrams were double referenced (subtraction of reference flow cell signal and buffer injection) and were fitted to a 1:1 Langmuir binding model using the Biacore T200 Evaluation software obtaining the experimental fitted RMax value. To calculate the binding activity first the theoretical RMax needs to be calculated according to equation 1: […]
Binding activity was determined by dividing the experimental determined RMax by the theoretical calculated RMax according to equation 2: […]

[5] = biological target: T3, Human Semaphorin3A-Fc (R&D Systems), TPP-13211 (human); test: competition ELISA on coated TPP-13211, competitor biotinylated TPP-15370
T3 construct: R&D Systems 1250-S3; also called recombinant human Sema3A-Fc chimera
T3 sequence (chain, as listed by the source limits assumed): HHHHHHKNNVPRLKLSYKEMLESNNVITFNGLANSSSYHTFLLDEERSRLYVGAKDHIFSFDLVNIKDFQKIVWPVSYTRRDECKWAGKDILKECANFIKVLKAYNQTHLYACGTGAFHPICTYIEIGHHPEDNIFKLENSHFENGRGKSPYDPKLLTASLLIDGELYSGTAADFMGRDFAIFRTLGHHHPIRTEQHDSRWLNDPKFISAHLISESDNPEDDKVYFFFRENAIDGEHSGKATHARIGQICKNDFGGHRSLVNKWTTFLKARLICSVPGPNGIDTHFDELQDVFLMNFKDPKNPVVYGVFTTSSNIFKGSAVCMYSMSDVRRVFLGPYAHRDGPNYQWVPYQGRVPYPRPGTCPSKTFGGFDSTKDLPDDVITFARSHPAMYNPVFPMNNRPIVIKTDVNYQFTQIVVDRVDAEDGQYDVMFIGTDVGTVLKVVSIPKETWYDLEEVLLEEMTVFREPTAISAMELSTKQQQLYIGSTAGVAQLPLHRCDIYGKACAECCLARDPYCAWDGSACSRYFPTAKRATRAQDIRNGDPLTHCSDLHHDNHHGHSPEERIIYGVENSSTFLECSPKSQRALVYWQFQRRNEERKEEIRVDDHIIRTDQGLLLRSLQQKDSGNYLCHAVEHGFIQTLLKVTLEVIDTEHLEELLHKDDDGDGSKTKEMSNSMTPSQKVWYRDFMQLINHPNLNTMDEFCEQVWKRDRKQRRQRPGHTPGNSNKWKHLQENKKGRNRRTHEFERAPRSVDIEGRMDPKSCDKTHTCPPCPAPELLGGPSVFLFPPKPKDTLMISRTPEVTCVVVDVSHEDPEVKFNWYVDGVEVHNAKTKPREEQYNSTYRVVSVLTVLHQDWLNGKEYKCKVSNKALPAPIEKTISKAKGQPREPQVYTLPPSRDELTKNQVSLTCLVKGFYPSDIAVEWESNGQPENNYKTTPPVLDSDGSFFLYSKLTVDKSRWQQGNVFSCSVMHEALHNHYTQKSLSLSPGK
Experimental: For screening in a competition ELISA setup, human Sema3a (TPP-13211) was coated onto 384-well plates (Greiner bio-one, 781077) with a concentration of 0.5 μg/ml in coating buffer (Carbonate-Basis pH 9.6, Candor 121125) over night at 10° C. After washing the plates 3 times with 50 μl PBS 0.05% Tween the plates were blocked with 50 μl Smart Block® (Candor 113500) for 1 h at 20° C. and washed again 3 times as described.
Subsequently, 20 μl of pre-mixed antibody solution was added to the plates and incubate for 18 h at 10° C. […] The total concentration of the added antibody solution was 0.25 μg/ml. During the incubation time the antibodies bound to the plates in a competitive manner as they compete for the same epitope on the human Sema3A protein.
After subsequent washing with 50 μl PBS 0.05% Tween for 3 times, 20 μl of a Streptavidin-HRP solution (R&D Systems, DY998, 1:200 in PBS 0.05% Tween 10% Smart Block) were added and incubated for 1 h and 20° C. followed by subsequent washing 3 times with 50 μl PBS 0.05% Tween and addition of 20 μl Amplex Red solution (Invitrogen A12222, 1:1000 in NaP-buffer 50 mM pH7.6 with 1:10000 of 30% H2O2). After a final incubation for 20 min at 20° C. the signal was determined using an emission wavelength of 595 nm and excitation of 530 nm.

| Binder | EC50 (nM), GCC assay [1] [nM] | EC50 (pM), HUVEC repulsion assay [2] [pM] | EC50 (pM), HUVEC repulsion assay, second experiment [3] [pM] | Binding Activity [%] [4] [%] | VAL norm to TPP-9809 (1 to 1 ratio) [5] | VAL norm to TPP-9809 (1 to 5 ratio) [5] |
| --- | --- | --- | --- | --- | --- | --- |
| TPP-23298 (antibody, human IgG4 S228P, lambda, V domains shown) VH: EVQLLESGGGLVQPGGSLRLSCAASGFTFYSYAMSWVRQAPGKGLEWVSAIGTGGDTYYADSVKGRFTISRDNSKNTLYLQMNSLRAEDTAVYYCARRDDYTSRDAFDYWGQGTLVTVSS VL: not shown | 2.4 | 80 | 54 | 107 | 0.18 | 0.09 |
| TPP-17755 (antibody, human IgG1, lambda, V domains shown, also called Samsung; Samsung Prior Art F11) VH: EVQLLESGGGLVQTGGSLRLSCAASGFTFSDYAMSWVRQAPGKGLEWVSWIYYDSGSKYYADSVKGRFTISRDNSKNTLYLQMNSLRAEDTAVYYCAKLNGDFDYWGQGTLVTVSS VL: QSVLTQPPSASGTPGQRVTISCSGSSSNIGNNDVSWYQQLPGTAPKLLIYADSHRPSGVPDRFSGSKSGTSASLAISGLRSEDEADYYCGAWDSSLSGYVFGGGTKLTVLG | 52.7 |  | 2790 | 60 |  |  |
| TPP-11489 (antibody, human IgG1, lambda, human IgG1; also called Chiome; Chiome Prior Art (hIgG1)) heavy: not shown light: SYELTQPPSVSVSPGQTARITCSGGGSYTGSYYYGWYQQKPGQAPVTVIYYNNKRPSDIPERFSGSLSGTTNTLTISGVQAEDEADYYCGSADNSGDAFGTGTKVTVLGQPKAAPSVTLFPPSSEELQANKATLVCLISDFYPGAVTVAWKADSSPVKAGVETTTPSKQSNNKYAASSYLSLTPEQWKSHRSYSCQVTHEGSTVEKTVAPTECS |  |  | > 20000 | 77 |  |  |
| TPP-30789 (antibody, human IgG1, kappa, V domains shown, prior art, WO 2020/225400; also called BI clone II; Böhringer (BI) Clone II) VH: EVQLVESGGGLVQPGGSLRLSCAASGFPFSSYYMSWVRQAPGKGLEWVSTIIKSGGYAYYPDSVKDRFTISRDNSKNTLYLQMSSLRAEDTAVYYCVRGGQGAMDYWGQGTTVTVSS VL: EIVLTQSPATLSLSPGERATLSCRASQSIGDYLHWYQQKPGQAPRLLIKYASQSISGIPARFSGSGSGTDFTLTITSLEPEDFAVYYCQQGYSFPYTFGGGTKLEIKR |  |  | 165 | 103 |  |  |

Further lines, results first:

| EC50 (nM), GCC assay [1] [nM] | EC50 (pM), HUVEC repulsion assay [2] [pM] | EC50 (pM), HUVEC repulsion assay, second experiment [3] [pM] | Binding Activity [%] [4] [%] | VAL norm to TPP-9809 (1 to 1 ratio) [5] | VAL norm to TPP-9809 (1 to 5 ratio) [5] | Binder |
| --- | --- | --- | --- | --- | --- | --- |
|  |  | 121 | 92 |  |  | TPP-30790 (antibody, human IgG1, kappa, V domains shown, prior art, WO 2020/225400; also called BI clone III; Böhringer (BI) Clone III) VH: EVQLVESGGGLVQLGGSLRLSCAASGFTFSSYYMSWVRQAPGKGLEWVSTIIKSGGYAYYPDSVKDRFTISRDNSKNTLYLQMNSLRAEDTAVYYCVKGGQGAMDYWGQGTTVTVSS VL: EIVLTQSPATLSLSPGERATLSCRASQSIGDYLHWYQQKPGQAPRLLIYYASQSISGIPARFSGSGSGTDFTLTISSLEPEDFAVYYCQQGYSFPYTFGGGTKLEIKR |
|  |  | 221 | 105 |  |  | TPP-30791 (antibody, human IgG1, kappa, V domains shown, prior art, WO 2020/225400; also called BI clone IV; Böhringer (BI) Clone IV) VH: EVQLVESGGGLLQLGGSLRLSCAASGFTFSSYYMSWVRQAPGKGLEWVSTIIKSGGYAYYPDSVKDRFTISRDNSKNTLNLQMNSLRAEDTAVYYCVKGGQGAMDYWGQGTTVTVSS VL: EIVLTQSPATLSLSPGERATLSCRASQSIGDYLHWYQQKPGQAPRLLIKYASQSISGIPARFSGSGSGTDFTLTISSLEPEDFAVYYCQQGYSFPYTFGGGTKLEIKR |
